Test results from patent US20210220450A1, “TREATMENT OF AN IOP CONDITION” (The Research Foundation for The State University of New York, priority 2013, published 2021).

Legend:
[1] = target: N-methyl-D-aspartate receptor (NMDAR); assay: cell-based or functional assay
[2] = target: low-density-lipoprotein receptor-related protein 1 (LRP-1) (UniProt Q07954); assay: cell-based or functional assay
Chain of UniProt Q07954 (Q07954 20-4544 limits assumed): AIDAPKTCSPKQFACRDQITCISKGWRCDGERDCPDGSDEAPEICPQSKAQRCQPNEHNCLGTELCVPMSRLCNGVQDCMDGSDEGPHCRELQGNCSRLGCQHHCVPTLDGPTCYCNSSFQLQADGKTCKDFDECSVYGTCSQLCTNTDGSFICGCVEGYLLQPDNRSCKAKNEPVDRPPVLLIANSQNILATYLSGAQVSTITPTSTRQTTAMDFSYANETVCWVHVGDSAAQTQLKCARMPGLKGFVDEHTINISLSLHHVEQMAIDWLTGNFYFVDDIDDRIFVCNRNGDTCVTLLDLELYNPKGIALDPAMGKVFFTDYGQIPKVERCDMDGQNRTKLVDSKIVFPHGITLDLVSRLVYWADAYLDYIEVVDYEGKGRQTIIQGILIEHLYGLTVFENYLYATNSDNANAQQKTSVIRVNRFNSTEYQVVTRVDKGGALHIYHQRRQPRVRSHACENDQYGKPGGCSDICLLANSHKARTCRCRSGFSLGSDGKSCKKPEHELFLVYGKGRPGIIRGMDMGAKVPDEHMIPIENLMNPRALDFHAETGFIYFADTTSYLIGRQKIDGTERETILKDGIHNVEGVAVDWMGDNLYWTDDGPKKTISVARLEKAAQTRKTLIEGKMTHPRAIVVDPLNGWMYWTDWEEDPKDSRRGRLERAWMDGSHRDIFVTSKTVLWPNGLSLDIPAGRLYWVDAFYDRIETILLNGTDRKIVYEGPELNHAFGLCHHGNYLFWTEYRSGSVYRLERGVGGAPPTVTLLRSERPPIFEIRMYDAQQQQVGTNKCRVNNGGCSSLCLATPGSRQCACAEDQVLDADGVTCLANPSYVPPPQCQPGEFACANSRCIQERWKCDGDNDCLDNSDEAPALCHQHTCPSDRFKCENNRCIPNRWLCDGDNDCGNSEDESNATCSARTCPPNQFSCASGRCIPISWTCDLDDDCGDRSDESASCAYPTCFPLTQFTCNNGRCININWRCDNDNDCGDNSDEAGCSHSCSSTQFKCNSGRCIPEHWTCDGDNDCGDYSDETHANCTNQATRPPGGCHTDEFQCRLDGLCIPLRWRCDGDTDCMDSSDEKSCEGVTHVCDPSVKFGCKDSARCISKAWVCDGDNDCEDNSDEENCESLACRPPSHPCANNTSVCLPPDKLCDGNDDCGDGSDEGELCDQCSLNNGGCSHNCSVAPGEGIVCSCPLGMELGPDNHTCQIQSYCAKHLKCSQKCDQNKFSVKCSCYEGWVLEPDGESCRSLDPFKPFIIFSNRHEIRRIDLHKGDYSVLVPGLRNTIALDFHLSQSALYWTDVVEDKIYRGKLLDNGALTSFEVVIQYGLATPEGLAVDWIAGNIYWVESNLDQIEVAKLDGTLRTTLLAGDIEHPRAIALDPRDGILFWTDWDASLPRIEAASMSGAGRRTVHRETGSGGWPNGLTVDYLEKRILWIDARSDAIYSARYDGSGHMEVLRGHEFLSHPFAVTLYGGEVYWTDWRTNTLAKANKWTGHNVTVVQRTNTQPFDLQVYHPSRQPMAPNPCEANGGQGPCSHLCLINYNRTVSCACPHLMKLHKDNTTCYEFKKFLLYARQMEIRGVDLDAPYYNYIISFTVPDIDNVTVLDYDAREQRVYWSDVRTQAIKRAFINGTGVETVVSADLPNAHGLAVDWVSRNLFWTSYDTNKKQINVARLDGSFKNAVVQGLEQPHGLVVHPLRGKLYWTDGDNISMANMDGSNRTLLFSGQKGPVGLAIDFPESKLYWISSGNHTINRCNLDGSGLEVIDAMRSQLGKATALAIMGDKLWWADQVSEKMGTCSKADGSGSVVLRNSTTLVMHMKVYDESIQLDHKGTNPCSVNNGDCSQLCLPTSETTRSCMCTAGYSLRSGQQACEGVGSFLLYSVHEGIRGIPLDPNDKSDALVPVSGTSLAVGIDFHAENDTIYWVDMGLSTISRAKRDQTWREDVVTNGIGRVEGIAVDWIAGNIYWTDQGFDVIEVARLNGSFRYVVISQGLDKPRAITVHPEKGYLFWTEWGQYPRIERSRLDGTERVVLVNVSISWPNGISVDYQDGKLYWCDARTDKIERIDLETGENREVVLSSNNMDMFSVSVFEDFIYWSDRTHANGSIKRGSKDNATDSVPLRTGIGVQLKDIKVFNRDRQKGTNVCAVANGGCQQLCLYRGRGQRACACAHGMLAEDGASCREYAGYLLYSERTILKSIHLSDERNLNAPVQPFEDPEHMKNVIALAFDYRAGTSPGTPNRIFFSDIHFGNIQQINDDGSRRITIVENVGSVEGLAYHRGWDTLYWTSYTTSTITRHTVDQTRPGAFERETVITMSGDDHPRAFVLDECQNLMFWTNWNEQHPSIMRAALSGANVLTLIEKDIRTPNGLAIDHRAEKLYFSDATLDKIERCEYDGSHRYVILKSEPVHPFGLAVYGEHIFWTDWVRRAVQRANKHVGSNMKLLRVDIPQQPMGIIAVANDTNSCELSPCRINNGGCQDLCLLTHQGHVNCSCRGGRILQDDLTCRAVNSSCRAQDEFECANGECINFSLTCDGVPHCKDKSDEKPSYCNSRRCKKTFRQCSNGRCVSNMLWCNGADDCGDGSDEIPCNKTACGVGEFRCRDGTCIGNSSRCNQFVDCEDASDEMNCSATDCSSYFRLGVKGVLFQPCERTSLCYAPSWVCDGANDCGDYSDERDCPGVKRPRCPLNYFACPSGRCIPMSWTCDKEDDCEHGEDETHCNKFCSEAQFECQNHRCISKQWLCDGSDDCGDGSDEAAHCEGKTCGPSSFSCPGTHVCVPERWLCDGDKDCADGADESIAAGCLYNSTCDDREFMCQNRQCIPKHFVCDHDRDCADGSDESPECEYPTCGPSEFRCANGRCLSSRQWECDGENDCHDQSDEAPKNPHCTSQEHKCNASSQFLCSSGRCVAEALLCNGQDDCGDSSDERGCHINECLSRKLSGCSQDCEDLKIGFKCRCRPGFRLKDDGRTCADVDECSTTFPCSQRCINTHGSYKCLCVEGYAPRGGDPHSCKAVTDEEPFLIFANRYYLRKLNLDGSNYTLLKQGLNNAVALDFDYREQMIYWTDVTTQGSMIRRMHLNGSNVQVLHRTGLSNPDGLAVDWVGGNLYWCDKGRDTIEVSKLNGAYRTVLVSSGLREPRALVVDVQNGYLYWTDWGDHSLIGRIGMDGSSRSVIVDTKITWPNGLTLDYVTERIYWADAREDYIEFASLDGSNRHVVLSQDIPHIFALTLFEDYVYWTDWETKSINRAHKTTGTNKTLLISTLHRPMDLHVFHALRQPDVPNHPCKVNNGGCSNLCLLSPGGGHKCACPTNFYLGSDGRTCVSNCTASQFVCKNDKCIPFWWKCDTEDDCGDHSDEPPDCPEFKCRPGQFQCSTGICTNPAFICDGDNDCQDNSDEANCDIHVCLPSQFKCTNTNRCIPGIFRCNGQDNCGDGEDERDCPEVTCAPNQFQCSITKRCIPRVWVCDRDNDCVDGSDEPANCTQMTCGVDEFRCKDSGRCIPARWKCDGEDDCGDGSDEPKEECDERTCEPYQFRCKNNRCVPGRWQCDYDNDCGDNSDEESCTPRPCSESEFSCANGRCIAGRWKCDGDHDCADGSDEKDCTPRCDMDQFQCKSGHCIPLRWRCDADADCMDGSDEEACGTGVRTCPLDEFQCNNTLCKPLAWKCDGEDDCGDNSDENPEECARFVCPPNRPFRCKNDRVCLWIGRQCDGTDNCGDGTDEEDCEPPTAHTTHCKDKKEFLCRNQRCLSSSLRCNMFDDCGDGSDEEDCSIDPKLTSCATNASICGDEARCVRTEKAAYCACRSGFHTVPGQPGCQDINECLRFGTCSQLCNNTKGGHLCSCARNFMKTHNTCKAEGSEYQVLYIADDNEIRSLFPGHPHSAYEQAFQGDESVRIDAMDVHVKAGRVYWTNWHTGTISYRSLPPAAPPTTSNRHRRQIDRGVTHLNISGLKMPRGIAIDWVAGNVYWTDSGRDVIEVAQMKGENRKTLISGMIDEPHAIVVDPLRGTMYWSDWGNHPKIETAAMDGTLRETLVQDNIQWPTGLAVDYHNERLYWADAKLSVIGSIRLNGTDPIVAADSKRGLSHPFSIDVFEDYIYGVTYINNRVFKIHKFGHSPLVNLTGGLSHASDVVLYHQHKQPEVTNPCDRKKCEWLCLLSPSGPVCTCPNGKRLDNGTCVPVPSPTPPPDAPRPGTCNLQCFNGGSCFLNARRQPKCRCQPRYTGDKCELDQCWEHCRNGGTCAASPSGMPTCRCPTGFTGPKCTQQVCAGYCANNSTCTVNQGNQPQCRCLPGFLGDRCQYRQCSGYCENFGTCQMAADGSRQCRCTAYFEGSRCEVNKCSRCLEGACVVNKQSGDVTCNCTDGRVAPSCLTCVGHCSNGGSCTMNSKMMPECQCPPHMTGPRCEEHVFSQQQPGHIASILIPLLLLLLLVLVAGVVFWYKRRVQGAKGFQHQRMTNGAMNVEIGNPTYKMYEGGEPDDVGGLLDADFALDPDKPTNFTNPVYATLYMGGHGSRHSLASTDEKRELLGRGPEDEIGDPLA

Simulated outflow facility of HTM cells in ACOS, PA+NE-tPA (no inhibitor) (µl/min/mmHg/mm^2) [1]: 0.55
Simulated outflow facility of HTM cells in ACOS, PA+NE-tPA+MK-801 (inhibitor of NMDA receptor) (µl/min/mmHg/mm^2) [1]: 0.29
Simulated outflow facility of HTM cells in ACOS, PA+NE-tPA+MK-801+RAP (both inhibitors) (µl/min/mmHg/mm^2) [1]: 0.33
Simulated outflow facility of HTM cells in ACOS, PA+NE-tPA (no inhibitor) (µl/min/mmHg/mm^2) [2]: 0.55
Simulated outflow facility of HTM cells in ACOS, PA+NE-tPA+MK-801+RAP (both inhibitors) (µl/min/mmHg/mm^2) [2]: 0.33
Simulated outflow facility of HTM cells in ACOS, PA+NE-tPA+RAP (inhibitor of LRP1) (µl/min/mmHg/mm^2) [2]: 0.27
Substance: non-enzymatically active tPA (NE-tPA/S478A-tPA) (from UniProt P00750 36-562)
